# Source: patent US20040048311A1
# Key:
# 38C13 IgM [1] = assay: antibody microarray on FAST slide, purified 38C13 IgM, detection with goat anti-mouse IgM HRP, chemiluminescence
# 38C13 IgM [2] = assay: antibody microarray on FAST slide, 38C13 cell extract at 1:2000 dilution, detection with goat anti-mouse IgM HRP, chemiluminescence
substance,measurement,setting,value
S1C5 anti-idiotype monoclonal antibody,lowest IgM concentration giving signal,38C13 IgM [1],0.1 µg/mL
same,lowest spotted S1C5 concentration giving signal,38C13 IgM [1],25 µg/mL
same,lowest printed S1C5 concentration giving signal,38C13 IgM [2],50 µg/mL
